Reference: paper PMC5435868, “Crystal structure of U2 snRNP SF3b components: Hsh49p in complex with Cus1p-binding domain” (RNA, 2017)
Where a chain is given by its changes, count along the chain named. Blank lines part the entries; values can stand above or below the molecule they belong to.

Columns and labels:
[1] = biological target: T1, Hsh49p (Saccharomyces cerevisiae) (UniProt Q99181); assay: fluorescence anisotropy; conditions: 20 mM K-Hepes pH 7.5, 125 mM KCl, 1 mM EDTA, 5 mM DTT, 0.01% Igepal, E. coli tRNA (100 ng FA, 500 ng EMSA), 22°C 20 min; EMSA gels at 4°C
T1 sequence: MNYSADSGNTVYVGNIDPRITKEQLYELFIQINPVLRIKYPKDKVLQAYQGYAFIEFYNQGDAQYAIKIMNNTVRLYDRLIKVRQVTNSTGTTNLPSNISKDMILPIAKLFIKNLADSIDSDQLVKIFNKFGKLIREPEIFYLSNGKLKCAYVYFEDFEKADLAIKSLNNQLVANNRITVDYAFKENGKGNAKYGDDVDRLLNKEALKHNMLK

HisHsh49p = biological target: T2, HisHsh49p (S. cerevisiae, UniProt Q99181 1-213); assay: pull-down; purified HisHsh49p–Cus1 complex (40 µM) cut with trypsin (10 µg/mL, 10 min, 22°C), His-tagged Hsh49p held on Ni-NTA resin; fragments told by N-terminal sequencing and MALDI-TOF; conditions: both partners purified
T2 construct: Hsh49p, S. cerevisiae; Held on Ni-NTA resin by its His tag after the trypsin digest; also called His-tagged Hsh49p; source: E. coli, coexpressed with Cus1(121-392)p, purified as complex; not shown: His6, N-terminal, kept
T2 sequence (looked up): T1 sequence

Hsh49p;Cus1(290-368)p [2] = biological target: T3, Hsh49p;Cus1(290-368)p (Saccharomyces cerevisiae;Saccharomyces …, UniProt Q99181;Q02554 1-213;290-368, |); assay: EMSA; up to 1.5 µM protein, E. coli tRNA; 20 mM K-Hepes pH 7.5, 125 mM KCl, 1 mM EDTA, 5 mM DTT, 0.01% Igepal, E. coli tRNA (100 ng FA, 500 ng EMSA), 22°C 20 min; EMSA gels at 4°C; conditions: protein: recombinant;recombinant, tags: His-TEV tag (cleaved);none stated, coexpressed, copies: 1;1, label: 3' fluorescein
T3 sequence 1: T1 sequence
T3 sequence 2: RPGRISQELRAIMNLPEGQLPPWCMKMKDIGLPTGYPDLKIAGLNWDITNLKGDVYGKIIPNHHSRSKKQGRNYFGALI

Hsh49p = biological target: T4, Hsh49p (Saccharomyces cerevisiae, UniProt Q99181 1-213); assay: as above; conditions: protein: recombinant, tags: His-TEV tag (cleaved), label: 3' fluorescein
T4 sequence: T1 sequence

Hsh49p RRM2 = biological target: T5, Hsh49p RRM2 (Saccharomyces cerevisiae, UniProt Q99181 108-185); assay: fluorescence anisotropy; 20 mM K-Hepes pH 7.5, 125 mM KCl, 1 mM EDTA, 5 mM DTT, 0.01% Igepal, E. coli tRNA (100 ng FA, 500 ng EMSA), 22°C 20 min; EMSA gels at 4°C; conditions: protein: recombinant; tags: His-TEV tag (cleaved); label: 3' fluorescein; hairpin
T5 sequence: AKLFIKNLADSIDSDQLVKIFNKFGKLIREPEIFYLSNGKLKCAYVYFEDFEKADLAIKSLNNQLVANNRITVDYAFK

[3] = biological target: T6, Hsh49p Tyr52Ala-Phe54Ala (RRM1 mutant);Cus1(290-350)p (Saccharomyces cerevisiae;Saccharomyces …, UniProt Q99181;Q02554 1-213;290-350, Y52A;F54A|); assay: as above; conditions: protein: recombinant;recombinant; tags: His-TEV tag (cleaved);none stated; coexpressed; copies: 1;1; label: 3' fluorescein; hairpin with 5' single strand
T6 sequence 1: T1 sequence with Y52A, F54A
T6 sequence 2: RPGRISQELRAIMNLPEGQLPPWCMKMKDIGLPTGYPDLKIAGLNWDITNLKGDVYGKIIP

[4] = biological target: T7, Hsh49p Tyr152Ala-Tyr154Ala (RRM2 mutant);Cus1(290-350)p (Saccharomyces cerevisiae;Saccharomyces …, UniProt Q99181;Q02554 1-213;290-350, Y152A;Y154A|); assay: fluorescence anisotropy; mutation has no effect; 20 mM K-Hepes pH 7.5, 125 mM KCl, 1 mM EDTA, 5 mM DTT, 0.01% Igepal, E. coli tRNA (100 ng FA, 500 ng EMSA), 22°C 20 min; EMSA gels at 4°C; conditions: protein: recombinant;recombinant; tags: His-TEV tag (cleaved);none stated; coexpressed; copies: 1;1; label: 3' fluorescein; hairpin with 5' single strand
T7 sequence 1: T1 sequence with Y152A, Y154A
T7 sequence 2: T6 sequence 2

Hsh49p;Cus1(290-368)p [5] = biological target: T3, Hsh49p;Cus1(290-368)p; assay: fluorescence anisotropy; similar to RRM1-Cus1(290-368)p; 20 mM K-Hepes pH 7.5, 125 mM KCl, 1 mM EDTA, 5 mM DTT, 0.01% Igepal, E. coli tRNA (100 ng FA, 500 ng EMSA), 22°C 20 min; EMSA gels at 4°C; conditions: protein: recombinant;recombinant; tags: His-TEV tag (cleaved);none stated; coexpressed; copies: 1;1; label: 3' fluorescein; hairpin with 5' single strand
Hsh49p;Cus1(290-368)p [6] = biological target: T3, Hsh49p;Cus1(290-368)p; assay: fluorescence anisotropy; 20 mM K-Hepes pH 7.5, 125 mM KCl, 1 mM EDTA, 5 mM DTT, 0.01% Igepal, E. coli tRNA (100 ng FA, 500 ng EMSA), 22°C 20 min; EMSA gels at 4°C; conditions: protein: recombinant;recombinant; tags: His-TEV tag (cleaved);none stated; coexpressed; copies: 1;1; label: 3' fluorescein; hairpin with single-stranded flanks
Hsh49p;Cus1(290-368)p [7] = biological target: T3, Hsh49p;Cus1(290-368)p; assay: fluorescence anisotropy; pseudouridines have no large effect; 20 mM K-Hepes pH 7.5, 125 mM KCl, 1 mM EDTA, 5 mM DTT, 0.01% Igepal, E. coli tRNA (100 ng FA, 500 ng EMSA), 22°C 20 min; EMSA gels at 4°C; conditions: protein: recombinant;recombinant; tags: His-TEV tag (cleaved);none stated; coexpressed; copies: 1;1; label: 3' fluorescein; hairpin with single-stranded flanks

Molecule: ACGAAUCUCUUUGCCUUUUGGCUUAGAUCAAGUGUAGUAUCUGUUCU [5'SLIBPRS]
- binding signal (fold weaker than Hsh49p-Cus1(290-368)p) [1]: 10

- binding result (HisHsh49p): binds
B1: Cus1p fragment comprising residues 285-355 (domain or fragment, S. cerevisiae, UniProt Q02554 285-355, looked up)
chain: MVDHKRPGRISQELRAIMNLPEGQLPPWCMKMKDIGLPTGYPDLKIAGLNWDITNLKGDVYGKIIPNHHSR
notes: also called digested Cus1p fragment; source: trypsin digest of the purified HisHsh49p-Cus1 complex made in E. coli

Molecule: UGACCUCAAUGAGGCUCA (structured_RNA) [SLIIb]
- binding result (Hsh49p;Cus1(290-368)p [2]; hairpin): no binding
- binding result (Hsh49p; hairpin): no binding
- binding result (Hsh49p RRM2): no binding

Molecule: ACGAAUCUCUUUGCCUUUUGGCUUAGA (structured_RNA) [5'SLI]
- binding signal [3]: ~10 fold lower affinity than wild type
- binding result [4]: binds
- binding result (Hsh49p; hairpin with 5' single strand): no binding
- binding result (Hsh49p;Cus1(290-368)p [5]): binds

Molecule: UCUUUGCCUUUUGGCUUAGA (structured_RNA) [SLI]
- binding result (Hsh49p;Cus1(290-368)p [2]; hairpin): no binding
- binding result (Hsh49p; hairpin): no binding

Molecule: ACGAAUCUCUUUGCCUUUUGGCUUAGAUCAAGUGUAGUAUCUGUUCU (structured_RNA) [5'SLIBPRS]
- binding signal (Hsh49p;Cus1(290-368)p [6]): ~10 fold stronger than Hsh49p alone

Molecule: ACGAAUCUCUUUGCCUUUUGGCUUAGAUCAAGUGUAGUAUCUGUUCU (structured_RNA, pseudouridines around the BPRS (positions in figure)) [5'SLIBPRS-pseu]
- binding result (Hsh49p;Cus1(290-368)p [7]): binds

Molecule: UCAAGUGUAGUAUCUGUUCU (ssRNA) [BPRS]
- binding result (Hsh49p;Cus1(290-368)p [2]): no binding
- binding result (Hsh49p): no binding

Molecule: UUUCAGUGUAACAACUGAAA (structured_RNA) [SLIIa]
- binding result (Hsh49p;Cus1(290-368)p [2]; hairpin): no binding
- binding result (Hsh49p; hairpin): no binding
- binding result (Hsh49p RRM2): no binding
